One molecule from article PMC3760383 can be followed below.

Some targets named below: IFI16 HIN-A (Homo sapiens, UniProt Q16666-2 192-393); p53 (82-393);IFI16 HIN-A (Homo sapiens;Homo sapiens, UniProt P04637;Q16666-2 82-393;192-393, |); p53 (82-360);IFI16 HIN-B (Homo sapiens;Homo sapiens, UniProt P04637;Q16666-2 82-360;515-710, |).
What all share (experiment): EMSA

Sequence of IFI16 HIN-A (Q16666 192-393): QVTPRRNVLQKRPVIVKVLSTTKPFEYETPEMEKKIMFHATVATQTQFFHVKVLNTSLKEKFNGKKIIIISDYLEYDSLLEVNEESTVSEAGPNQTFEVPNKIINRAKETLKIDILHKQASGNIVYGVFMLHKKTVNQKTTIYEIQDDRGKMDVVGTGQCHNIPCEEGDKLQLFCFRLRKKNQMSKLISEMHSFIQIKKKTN

B1: p53 consensus 20-mer (dsDNA)
DNA 1: GGACATGCCCGGGCATGTCC
DNA 2: GGACATGCCCGGGCATGTCC
For B1, the binding result in the data set with IFI16 HIN-A was “no binding”; in the data set with p53 (82-393);IFI16 HIN-A, “binds”; with p53 (82-360);IFI16 HIN-B, “binds”.
